How the values were obtained:
Soybean agglutinin (SBA) = Soybean agglutinin (SBA) (UniProt P05046)
[1] = target: T1, soybean Bowman-Birk inhibitor (UniProt P01055)
T1 sequence: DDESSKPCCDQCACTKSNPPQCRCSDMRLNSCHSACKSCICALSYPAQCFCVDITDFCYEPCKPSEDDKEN

[2] = target: T2, soybean Kunitz trypsin inhibitor (UniProt P01070)
T2 sequence: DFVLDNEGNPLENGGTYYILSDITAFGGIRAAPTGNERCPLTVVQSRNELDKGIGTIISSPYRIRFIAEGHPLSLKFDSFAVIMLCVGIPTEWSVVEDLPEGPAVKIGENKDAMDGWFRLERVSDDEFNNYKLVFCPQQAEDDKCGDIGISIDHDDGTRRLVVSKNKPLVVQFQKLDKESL

Soybean agglutinin (SBA), sequence (P05046 33-285): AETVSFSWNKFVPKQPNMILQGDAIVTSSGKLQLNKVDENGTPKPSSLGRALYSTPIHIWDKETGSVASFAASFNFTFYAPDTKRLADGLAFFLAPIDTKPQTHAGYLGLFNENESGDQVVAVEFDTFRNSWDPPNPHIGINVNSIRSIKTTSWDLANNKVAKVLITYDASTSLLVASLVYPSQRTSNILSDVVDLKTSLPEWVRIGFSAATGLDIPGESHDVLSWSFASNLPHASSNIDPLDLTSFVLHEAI

For “protease from Nocardiopsis sp. NRRL 18262”, the Percentage degradation of isolated soy proteins (Soybean agglutinin (SBA)) was 100%, the Percentage degradation of isolated soy proteins (Soybean beta-conglycinin) was 95% and the Percentage degradation of isolated soy proteins (Soybean glycinin) was 98%. The Percentage degradation of isolated soy proteins [1] was 35% and the Percentage degradation of isolated soy proteins [2] was 94%.

— US20050058747
